Results published in PMC4925323 (Molecular microbiology, 2016).

Target: the molecule itself
Test: crystal structure

B1: Listeria monocytogenes PrsA1 (residues 22-294), wild type (domain or fragment)
chain: CGSSAVIKTDAGSVTQDELYEAMKTTYGNEVVQQLTFKKILEDKYTVTEKEVNAEYKKYEEQYGDSFESTLSSNNLTKTSFKENLEYNLLVQKATEANMDVSESKLKAYYKTWEPDITVRHILVDDEATAKEIQTKLKNGEKFTDLAKEYSTDTATSTNGGLLDPFGPGEMDETFEKAAYALENKDDVSGIVKSTYGYHLIQLVKKTEKGTYAKEKANVKAAYIKSQLTSENMTAALKKELKAANIDIKDSDLKDAFADYTSTSSTSSTTTSN
In the case of B1, the “stoichiometry N” value is reported as 2.
